In the nanobody polyreactivity screen of Harvey et al. (2022):

Assay: yeast display, Sf9 membrane polyspecificity reagent, FACS + sequencing; frameworks hold sequencing errors
Summary of the method: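 A nanobody's polyreactivity label depends on the gate it was sorted from. Yeast display cells were stained with 10% biotinylated, detergent-solubilized Sf9 membrane reagent for 1 hour at 4 °C, enriched on streptavidin microbeads and sorted by FACS. The low and high (top ~1%) gates were set on anti-HA fluorescence for expression and streptavidin fluorescence for reagent binding.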

| Sequence | polyreactivity (PSR sort gate) |
| --- | --- |
| QVQLQESGGLVQAGCLRLSCAASGSVSYHEAMGWYRQAPGKERELVATISFGANTNYADSVKGRFTISRDNAKNTVYLQMNSLKPEDTAVYYCAAESLFDDYYGYWGQGTQVTVSS | low polyreactivity |
| QVQLVESGGGLVQAGGSLSLSCAASGLTFRSYTMGWYRQAPGKERELVAAISSGGSTYYADSVKGRFTISRDNAKNTVYLQMNSLKPEDTAVYYCAAPRGHGKYYSWGQGTQVTVSS | high polyreactivity |
| QVQLVESGGGLVQAGGSLRLSCAASGYIFYDYAMGWYRQAPGKERELVAAIRRSTGTTYYADSVKGRFTISRDNAKNTVYLQMNSLKPEDTAFYYCAALFRPRVHRYDYWGQGTQVTVSS | low polyreactivity |
| QVQLVESGGGLVQAGGSLRLSCAASGSIVGYYFMGWYRQAPGKERELVAAITRSGSTYYADSVKGRFTISRDNEKNTVYLQMNSLKPEDTAVYYCAADGSYYWYTHTTYDYWGQGTQVTVSS | low polyreactivity |
| QVQLVESGGGLVQAGGSLRLSCAASGSTFPPNAMGWYRQAPGKERELVAVISYSDGSTYYADSVKGRFTISRDNAKNTVYLQMNSLKPEDTAVYYCAAYSGYGGVSMYYWGQGTQVTGSS | low polyreactivity |
| QVQLVESGGGLVQAGGSLRLSCAASGSIFISNAMGWYRQAPGKERELFAAINWTTGRTRYADSVKGRFTISRDNAKNTVYLQMNSLKPEDTAVYYCAARPYGGGRRSIYYYWGQGNQVTVSS | high polyreactivity |
| QVQLVESGVGLVQAGGSHRLSCSASGSIIEENSMGWYRQAPGKERELVAAITIGGRTNYADSVKGRFTISRDNAKNTVYLQMNSLKPEDTAVYYCAADLSSNKYFRFWTRYYYWGQGTQVTVSS | low polyreactivity |
| QVQLVESGGGLVQAGGSLRLSCAASGRTIYYYAMGWYRQAPGKERELVAAINYGSGGSTYYADSVKGRFTISRDNAKNTVYLQMNSLKPEDTAVYYCNARRQDWPRKAYGYWGQGTQVTVSS | high polyreactivity |
| QVQLVESVGGLVQAGGSLRLSCAASGRTFYTYAMGWYRQAPGKERELVAAISSSGSTYYADSVKGRFTISRDNAKKTVYLQMNSLKPEDTAVYYCNARTSRYRRGGDSWGQGTQVTVSS | high polyreactivity |
| QVQLVESGGGLVQAGGSLRLSCAASGSIFHPYGMGWYRQAPGKERELVARISWSTSSTNYADSVKGRFTISRDNAKNTVYLQMNSLKPEDTAVYYCAADYYVFPGYDYWGQGTQVTVSS | high polyreactivity |
| QVQLVESGGGLVQAGGSLRLSCAASGSTLHSYAMGWYRQAPGKERELVAAISFRGGSTYADSVKGRFTISRDNAKNTVYLQMNSLKPEDTAVYYCAAYSLYTMYWGQGTQVTVSS | low polyreactivity |
| QVQLVESGGGLVQAGGSLRLSCAASGRIFPFYDMGWYRQAPGKEREFVARITLSGGSTYYADSVMGRFTISRDNAKNTVNLQMNSLKPEDTSVYYCSADRTSWSVLDFDYWGQGTQVTVSS | low polyreactivity |
| QVQLVESGGGLVQAGGSLRLSCAASGRIFGRNAMGWYRQAPGKERELVAAISWRGGNTYYADSVKGRFTISRDNAKNTVYLQMNSLKPEDTAVYYCNTVQYRNEMGYWGQGTQVTVSS | high polyreactivity |
| QVQLVESAGGLVQAGGSLRLSCAASGSIFPWNAMGWYRQAPGKERELVAAISYSGTRTYYADSVKGRFTISRDNAKNTVYLQMNSLKPVDTAVYYCNARGYTRSYVKYDYWGQGTQVTVSS | high polyreactivity |
| QVQRVESGGGLVQAGGSLRLSCAASGGIFFYNAMGWYRQAPGIERELVATIRGGGSTNYADSVKGRFTISRDNAKNTVYLQMNSLKPEDTAVYFCAAVDRRGANYNYWGQGTQVTVSS | high polyreactivity |
| QVQLVESGGGLVQAGGSLRLSCAASGFTFSRYAMGWYRQAPGKERELVAAISYSGGTTYYADSVKGRFTISRDNAKNTVYLQMNSLKPEDTAVYYCNARARGQLVGHYYYWGQGTQVTVSS | high polyreactivity |
| QVQLVESGGGLVQAGGSLRLSCAASGSTFRYYAMGWYRQAPGKERELVAAITSGGSTNYADSVKGRFTISRDNAKNTVYLQMNSLKPEDTAVYYCAAGRRLRHRYNQGGPDYGYWGQGSQVTVSS | low polyreactivity |
| QVQLVESGGGLVQAGGSLRLSCAASGLTFDKYTMGWYRQAPGKERELVARISTSGSRTYYADSVKGRFTISRDIAKNTVYLQMNSLKPEDTAVYYCNKDGWIRRRRGYDYWGQGTQVTVSS | high polyreactivity |
| QVQLVESGGGIVQAGGSLRLSCAASGGTFPWYTMVWYRQAPGKERELVATIRGRDGSTFYADSVKGRFTISRDNAKNTVYLQMNSLIPEVTAVYYCAAVGRRKDLRWGVYYRFDYWGQGTQVTVSS | low polyreactivity |
| QVQLVESGGGLVQAGGSLRLSCAASGSIFKRYAMGWYRQAPGKERELVASISSRGSSTNYADSVKGRFTISRDNAKNTVYLQMNSLKPEDTAVYYCAAEVYRGKYWSTYRGGDYWGQGTQVTVSS | high polyreactivity |
| QGQLVESGGGLVQAGGSLRLSCAASGGTFRAYVMGWSRQAPGKERELVADISRSGTRTYYADSVKGRFTISRDNAKNTVYLQMNSLKPEDTAVYYCAAAAKSWLFEYWGQGTQVTVSS | high polyreactivity |
| QVQLVESGGGLVQAGGSLRLSCAASVFTSLIYAMGWYRPAPGKERELVATLTWGGGSTYADSVKGRLTISRDNAQNTVYLQMNSLKPVDTAVYDCKADIYDSWVYATVYSDRYDYWGQGTQVTVSS | low polyreactivity |

| Sequence | polyreactivity (PSR sort gate) |
| --- | --- |
| QVQLVESGGGLVQAGGSLRLSCAASGFIFDYNVMGWYSQAPGKKGSWVAAISWSGGSTYYADSVKGRFTISRDNAKNTVYLEINSLKPEDTAVYYCSSRGTSTFRGTGRYDYWGQGTQVTVSS | high polyreactivity |
| QVQLVESGGGLVQAGGSLRLSCAASGFTFLRNAMGWYRQAPGKERELVAAISRSDRTNYADSVKGRFTISRDNAKNTFYLQMNSLKPEDTAVYYCNARHSYWTGRRVTDDYDYWGQGTQVTVSS | high polyreactivity |
| QVQLEESGVGLVQAGGSLRLSCAASGSTFQTYVMGWYRQAPGKERELVAAISSGGSTNYADSVKGRFTISRDNAKNTVYLQMNSLKPEDTAVYYCAKRWPYFRRGKDGYWGQGTQVTVSS | low polyreactivity |
| QVQLVESGGSLVQAGGSLRLSCASSGYIFRLYAMGWYRHAPGKEREYVATITASGGTYYADSVKGRFTISRDNAKNTVYLQMNSLKPEDTAVYYCAAAKLRRLSRVRYVYWGQGTQVTVSS | high polyreactivity |
| QVQLVESGGGLVQAGGSLRLSCAASGYIFQYNAMGWYRQAPGKERELVAAISRGGRTNYADSVKGRFTISRDNAKNTVYLQMNSLNPEDTAVYFCAAKRPWGYYPWSTQTGDYWGQGTQVTVSS | high polyreactivity |
| QVQLVEAGGGLGQAGGSLRLSCAASGRILTPYARGWYRQAPGKERELVAANTSGGRTHYAHSVKGRFTMSRDNAKNTVYLQMNSLTPEDTAVYYCAARVRTGWWVRDDYWGQGTQVTLSS | high polyreactivity |
| QVQLVESGGGLVQAGGSLRLSCAASGFIFAANAMGRYRQAPGKEREMVAAISESGGSTYYADSVKGRFTISRDNAKNTVYLQLNSLKPEDTAVYYCNADIVWSPVLGEYYYWGQGTQVTVSS | high polyreactivity |
| QVQLVESGGGLVQAGGSLRLSCAASGITFRYYVMGWYRQAPGKERELVASISWGGGSTYYADSVKGRFTISRDNAKNTVYLQMNSLKPEDTAVYYCAARVPRPSYRGMNYWGQGTQVTVSS | high polyreactivity |
| QVQLVESGGGLVQAGGSLRLSCAASGLIFGYNAMGWYRQAPGKERELVAAISRRGTSTYYADSVKGRFTISRDNAKNTVYLQMNSLKPEDTAVYYCATYGVNPPGVEEYNYWGQGTQVTVSS | high polyreactivity |
| QVQLVESVGGLVQAGGSLRLSCAAAGRTFTLYAMGWYRQATGKERELVAAIRWSGSSTYSADSVKGRFTISRDNAKNTVYLQMNSLKPEDTAVYACDARAGRYDRYGYWGQGTQVSVSS | high polyreactivity |
| QVPLVESGGGLVQAGGSLRLSCAASGHTFRFYTMGWYRQAPGKEREFVAAIRRRTGSTYYADSVKGRFTISRDNAKNTVYLQMNSLKPEDTAVYYCAAESRYYYRFYYGYHYDYWGQGTQVTVSS | high polyreactivity |
| QVQLVESGGGLVQAGGSLRLTCAASGRILTCYAMGWYRQEPGKERELVASINWRGGSTYYADSVKGRFTISRDNAKNTVYLQMNSLKPEDTAGYYCARYKYTRQTRVEYGYWGQGTQVTVSS | high polyreactivity |
| QVQLVESGAGLVQAGGSLRLSCAASGFTFAFYAMGWSRQAPGKERELVAAITGSGGSTYYADSVKGRFTISRDNAKNTVYLQMNSLIPEVTAVYYCNNYTYYSRMDYWGPGTQVTVSS | high polyreactivity |
| QVQLVESGGGLVQAGGSLRLSCDASGSIFPYNAMGWYRQAPGKEREFVAAINLSGRSTNYADSVKGRFTISRDNAKNTVYLQMNSLKPEDTAVYYCNAPFVYFWPLNFDYWGQGTQVTVSS | low polyreactivity |
| QVQLVESGGGLVQAGGSLRLSCAASGITFYYNAMGWYRQAPGKERELVAAIRSAGSTYYADSVKGRFTISRDNAKNTVYLQMNSLKPEDTAVYYCAAEDGTTDQVRVYWIMDYWGQGTQVTVSS | low polyreactivity |
| QVQLGESGGGLVQAGGSLRLSCAASGNIFRYYAMGWYRQAPGKERELVAAITWSGGSTYYADSVKGRFTISRDNAKNTVYLQMNSLKQEDTAVYYCNTYRVPYRTVQDDYWGQGTQVTLSS | high polyreactivity |
| QVQLVESGGGLVQAGGSLRLSCAASGFTFTVYAMGWYRQAPGKERELVAVITAGDGTYYADSVKGRFTISRDNAKNTVYLQMNSLKPEDTAVYYCIALRYSSFRYLFAYDYWGQGTQVTVSS | low polyreactivity |
| QVQLVESVGGLVQAGGSLRLSCAASGRIFAPYAMGWYRQAPGKERELVAAIRWRGGSTSYADSVKGRFTISRDNAKNTVYLQMNSLKPEDTAVYYCNADYGFSFYWYDYWGQGTQVTVSS | low polyreactivity |
| QVQLVESGGGLVQAGGSLRLSCAASGLTFYKNAMGWYRQAPGKERELVAVISSSGGSTYYADSVKGRFTISRDNAKNTVYLQMYSLKPEDSAVYYFARDLYTEYRWGRLTYDYRGQGTQVTVSS | low polyreactivity |
| QFQLVESGGGLVQAGGSLRLSCAASGSIFYGYAMGWYRQAPGKERELVAAITSSNGSTYYADSVKGRFTISRDNEKNTVYLQMNSLKPEDTAVYYCAADVHGSYYIKPNVWYDYWGQGTQVTVSS | low polyreactivity |
| QVQLVESVGGLVQAGGSLRLSCAASGRISNDYAMGWYRQAPGKERELVATITFSGGDTYYADSVKGRFTISRDNAKNTVYLQMNSLKPEETAVYYCAASKWRSYSGVWWRLLFDYWGQGTQVTVSS | low polyreactivity |
